Data: publication PMC11638070 (Nature Structural & Molecular Biology, 2024)
Numbering of substitutions follows the chain as printed. In names and notes the source's numbering stands. One block for each binder: values may come before it.

What was measured:
[1] = molecular target: the molecule itself; experiment: SEC; analytical SEC of each protein alone (mtHsp60 samples 17 µM monomer); Superdex 200 Increase 3.2/300, room temperature, 20 mM HEPES pH 7.5, 100 mM KCl, 10 mM MgCl2
[2] = molecular target: T1, mitochondrial heat shock protein 60 V72I (mtHsp60^V72I) (human, UniProt P10809 53-573, V72I); experiment: cryo-EM structure; mtHsp60^V72I 0.2-0.6 mg/ml in ATPase buffer without detergent, 1 mM ATP; details: both partners purified
[3] = molecular target: T1, mitochondrial heat shock protein 60 …; experiment: SEC-MALS; mtHsp60 samples 17 µM monomer, without ATP; Shodex Protein KW-804, room temperature, 20 mM HEPES pH 7.5, 100 mM KCl, 10 mM MgCl2; heptamer to monomers; details: both partners purified
mtHsp60 Y201A = mtHsp60 Y201A (human, UniProt P10809 53-573, Y201A); experiment: SEC; analytical SEC of each protein alone (mtHsp60 samples 17 µM monomer); Superdex 200 Increase 3.2/300, room temperature, 20 mM HEPES pH 7.5, 100 mM KCl, 10 mM MgCl2; details: both partners purified

B1: mitochondrial malate dehydrogenase labelled with fluorescein isothiocyanate (FITC-mtMDH) (enzyme, human, UniProt P40926 25-338, looked up)
chain: AKVAVLGASGGIGQPLSLLLKNSPLVSRLTLYDIAHTPGVAADLSHIETKAAVKGYLGPEQLPDCLKGCDVVVIPAGVPRKPGMTRDDLFNTNATIVATLTAACAQHCPEAMICVIANPVNSTIPITAEVFKKHGVYNPNKIFGVTTLDIVRANTFVAELKGLDPARVNVPVIGGHAGKTIIPLISQCTPKVDFPQDQLTALTGRIQEAGTEVVKAKAGAGSATLSMAYAGARFVFSLVDAMNGKEGVVECSFVKSQETECTYFSTPLLLGKKGIEKNLGIGKVSSFEEKMISDAIPELKASIKKGEDFVKTLK
modifications: FITC (fluorescein isothiocyanate) label, sites not stated
notes: mitochondrial malate dehydrogenase (mtMDH), human; bacterial expression vector Addgene plasmid no; 38792; Used folded (elutes as a dimer) or chemically denatured (6 M guanidine HCl, 10 mM DTT, 1 h); the two states are told apart by the assays; also called FITC-mtMDH^denat (guanidine-denatured form); source: E. coli Rosetta 2(DE3)pLysS, purified (HisTrap, SEC), labelled with FITC
stoichiometry N [1]: 2

stoichiometry N [2]: 14
stoichiometry N [3]: 7
B2: mitochondrial heat shock protein 60 V72I (mtHsp60^V72I) (natural protein)
chain: AKDVKFGADARALMLQGVDLLADAVAVTMGPKGRTVIIEQSWGSPKVTKDGVTVAKSIDLKDKYKNIGAKLIQDVANNTNEEAGDGTTTATVLARSIAKEGFEKISKGANPVEIRRGVMLAVDAVIAELKKQSKPVTTPEEIAQVATISANGDKEIGNIISDAMKKVGRKGVITVKDGKTLNDELEIIEGMKFDRGYISPYFINTSKGQKCEFQDAYVLLSEKKISSIQSIVPALEIANAHRKPLVIIAEDVDGEALSTLVLNRLKVGLQVVAVKAPGFGDNRKNQLKDMAIATGGAVFGEEGLTLNLEDVQPHDLGKVGEVIVTKDDAMLLKGKGDKAQIEKRIQEIIEQLDVTTSEYEKEKLNERLAKLSDGVAVLKVGGTSDVEVNEKKDRVTDALNATRAAVEEGIVLGGGCALLRCIPALDSLTPANEDQKIGIEIIKRTLKIPAMTIAKNAGVEGSLIVEKIMQSSSEVGYDAMAGDFVNMVEKGIIDPTKVVRTALLDAAGVASLLTTAEVVVTEIPKEEKDPGMGAMGGMGGGMGGGMF
modifications: heptamer in apo state; ATP/Mg2+/K+ gives double-ring tetradecamer; SNA tag scar left out / heptamer in apo state; ATP/Mg2+/K+ gives double-ring tetradecamer; SNA tag scar left out

stoichiometry N (mtHsp60 Y201A): 7
B3: mtHsp60 Y201A (natural protein)
chain: B2 chain with I72V, Y201A
modifications: at least partly heptameric by SEC; mature numbering + 26 = precursor; SNA tag scar left out / at least partly heptameric by SEC; mature numbering + 26 = precursor; SNA tag scar left out
